Experimental data as given in the RNAGym collection of RNA variant scans (doi:10.1073/pnas.2313332121).
Fewer inactive variants are shown than the library holds.

B1: TPR 5TU (parent)
chain: GGAUCUUCUCGAUCUAACAAAAAAGACAAAUCUGCCACAAAGCUUGAGAGCAUCUUCGGAUGCAGAGGCGGCAGCCUUCGGUGGCGCGAUAGCGCCAACGUUCUCAACUAUGACACGCAAAACGCGUGCUCCGUUGAAUGGAGUUUAUCAUG

Variants of: B1
Experiment: polymerase ribozyme fitness, log enrichment relative to wild type (log ratio); higher = more active; in vitro selection for triplet polymerase activity
In short: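 After PCR construction and transcription, each subunit's mutant library from a heterodimeric triplet polymerase ribozyme was annealed with a biotinylated primer, the partner subunit and triplets. Incubation was frozen, at −7 °C, and extended constructs were gel-excised, bound to streptavidin beads and amplified by RT-PCR, in one selection round done in triplicate. Fitness is the logarithm of a genotype's enrichment divided by that of the wild type, from inverse-variance-weighted replicate averages of Illumina-sequenced inputs and outputs. The base of the logarithm is 2, and genotypes needed ≥10 input reads and ≥1 read per output.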

Variant	polymerase ribozyme fitness (log ratio)
C10U A47G G94U A147G	≤ -4.2
G11A C54U G83A A147U	-0.578
C10U C14G A39C A91G C95G C99U C105G A137G	≤ -4.2
C10U C35A A40U U44A C51U G59U G68C C87A G143U	≤ -4.2
G11C A40C G83U A119G	-2.65
C10U C69U A147C U148G C149G	≤ -4.2
C10G U53A G83U A91U A97G C103A	≤ -4.2
C10U C57U C96U	-3.83
C10A U33G A60G C75A A106U G117U A137C U144A	≤ -4.2
G11A C93G	≤ -4.2
G11A A39G C54G C87U C96G	≤ -4.2
C10G A19U G46A C85A C105U	≤ -4.2
C10U C35U	-3.04
C10G A37G G92C U135G A137G C149G	≤ -4.2
C10U G124C U139G U148C	≤ -4.2
C10G C54U G62C G86U U146C	≤ -4.2
C10G A40U A64U C76G C85A G117U G136A G143A	≤ -4.2
G11A U15G A17C A20U U33C A64G C93G A110G A147U	≤ -4.2
C10U C103G C132U	≤ -4.2
G11A A17C A49C C85U A91U G136U	≤ -4.2
C10U C14U A19C U55A G59U A97U C105A A115U G141U U148C	≤ -4.2

Variant	polymerase ribozyme fitness (log ratio)
C10U U15C A29U C95U	≤ -4.2
C10U C123U G141C	-4.03
C10A C85U	-4.01
G11A U134A	-3.6
C10U G42U A64U C93A A106U C123U G140A	≤ -4.2
G11A C69U C87U G92C A150G	-2.89
G11A A21C A24C C43U C85A U111C	≤ -4.2
C10G A19G G34A A52C C54G	≤ -4.2
G11A C57A	-1.44
C10G G46A U55A G65A A73G U134A	≤ -4.2
C10G C51U G92A G124C	≤ -4.2
C10G C18G G42U A49C G50A G74A G133C G143A	≤ -4.2
G11C C18G A23C G48A G88U C93G U144A	≤ -4.2
C10U G92A G141C	-3.99
C10U C18U U44G A60G G92A	≤ -4.2
C10G C32A G86U G92C G124A A137G	≤ -4.2
C10G C76U	-3.93
C10U A16G C43G U44G U77A U82A A120C	≤ -4.2
G11A C35U C51U U61G C63U A64C C85G U90G G140A	≤ -4.2
C10A A106G G126U	≤ -4.2
C10G A73U C76A C85G	≤ -4.2

Variant	polymerase ribozyme fitness (log ratio)
C10A C27G U77C G83A	≤ -4.2
C10U G141A	-2.07
C10U A107G	≤ -4.2
C10U G84A	-3.34
G11A U15G G46A A47G A60G G92C C96A	≤ -4.2
C10A G48C U82G A97U	≤ -4.2
G11C A20U G86C C99G G136C U145G A147C	≤ -4.2
G11A G92U	-1.16
C10A A91G C93U U144G	≤ -4.2
G11A A64G G88U U101G C103G U146G	≤ -4.2
C10A C85G G141U	≤ -4.2
C10U U13G C27A U33A C75G G88A A122U	≤ -4.2
G11A G34C A47G C103G A121U	≤ -4.2
C10U A17G A52C C75U C99U U102C U127A U135A	≤ -4.2
G11A A40C A49C G74C C85A C95G G100C A147U	≤ -4.2
G11C A20U C36U A60G C93G	≤ -4.2
G11A G58U C96U	-1.58
C10A A41U C51G C87A	≤ -4.2
G11C A47U C85U	-2.5
C10G C32G C38G U55G C87A G92A C125G G126A	-4.1
C10U A17U A41C G50C G84A	≤ -4.2

Variant	polymerase ribozyme fitness (log ratio)
C10G A28U C54U C85G C116U	≤ -4.2
C10A A28G U56G C85A	≤ -4.2
C10G C18U G59U G86A C103A	≤ -4.2
G11C C36U C57A G100A	≤ -4.2
C10U U13C A37C G70A C79A G84A A107C	≤ -4.2
C10U G58U G83A A89C A110G U148A	≤ -4.2
C10G C18U C85G G133U A138G	≤ -4.2
G11C A52G G84A G133C G141A	≤ -4.2
G11A C54U U55A G74A A89G G92C C105G G112A U144G	≤ -4.2
C10U C118U	-2.81
C10A G92A	-4.08
G11A C85G G94U	-0.903
C10A A22U A24G A40C A52C C57U G70A C93U A147C	-4.05
C10A U31G C35G G42C C69U G92A C95G G100A G143A	-3.74
C10U G84A U101A A115U A121G G124A	≤ -4.2
C10U G42C G83U A97G G124U G133C	≤ -4.2
C10G A41U	-4.05
G11A A24G A60U U78C G92A G100A	≤ -4.2
C10G G81C C87A U127C U144A U148A	≤ -4.2
C10G U53C C93U A107G	≤ -4.2
